Measurements: article PMC7017424, “Effects of Substrate-Binding Site Residues on the Biochemical Properties of a Tau Class Glutathione S-Transferase from Oryza sativa” (Genes, 2019)

T1: OsGSTU17 (Oryza sativa, UniProt Q93WY5)
T1 construct: about 25 kDa subunit; dimeric enzyme; mutants L112A and W165A expressed at 20 °C
T1 sequence (Q93WY5 1-223): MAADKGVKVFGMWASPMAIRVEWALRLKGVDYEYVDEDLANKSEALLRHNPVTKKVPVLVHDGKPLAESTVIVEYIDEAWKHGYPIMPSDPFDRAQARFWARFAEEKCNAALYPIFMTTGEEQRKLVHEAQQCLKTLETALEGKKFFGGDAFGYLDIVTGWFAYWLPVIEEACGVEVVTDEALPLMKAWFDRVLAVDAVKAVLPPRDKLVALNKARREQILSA


Assays:
OsGSTU17 = target: T1, OsGSTU17; test: absorbance at […] nm, initial rate […] s, non-linear regression (Hyper32); assay type: biochemical; conditions: 1.0 mM GSH fixed, NBD-Cl 0.1-1.0 mM, 25 °C; apparent Km; wild-type value 'detected again', obtained from Yang et al. [31]; read-out: NBD-Cl / K m /; cited from earlier work
purified protein = substrate: O=[N+]([O-])c1ccc(Cl)c2nonc12; test: purified protein; assay type: biochemical, Oryza sativa; conditions: 1.0 mM GSH fixed, NBD-Cl 0.1-1.0 mM, 25 °C, apparent Km

Row | Molecule | Km (OsGSTU17) [µM] | Km (purified protein; Km above tested range) [µM] | Vmax (purified protein; Km above tested range) [µM/min/mg] | kcat (purified protein; Km above tested range) [s⁻¹] | kcat/Km (purified protein; Km above tested range) [M⁻¹ s⁻¹] | Km (purified protein) [µM] | Vmax (purified protein) [µM/min/mg] | kcat (purified protein) [s⁻¹] | kcat/Km (purified protein) [M⁻¹ s⁻¹]
1 | O=[N+]([O-])c1ccc(Cl)c2nonc12 [NBD-Cl, 7-chloro-4-nitrobenzo-2-oxa-1,3-diazole] | 324 ± 16 |  |  |  |  |  |  |  | 
2 | OsGSTU17 (Oryza sativa Japonica Group; W161A) (protein, about 25 kDa subunit; dimeric enzyme; mutants L112A and W165A expressed at 20 °C) MAADKGVKVFGMWASPMAIRVEWALRLKGVDYEYVDEDLANKSEALLRHNPVTKKVPVLVHDGKPLAESTVIVEYIDEAWKHGYPIMPSDPFDRAQARFWARFAEEKCNAALYPIFMTTGEEQRKLVHEAQQCLKTLETALEGKKFFGGDAFGYLDIVTGAFAYWLPVIEEACGVEVVTDEALPLMKAWFDRVLAVDAVKAVLPPRDKLVALNKARREQILSA |  | 1117 ± 22 | 0.594 | 0.999 | 894 |  |  |  | 
3 | OsGSTU17 (Oryza sativa Japonica Group; F162A) (protein, about 25 kDa subunit; dimeric enzyme; mutants L112A and W165A expressed at 20 °C) MAADKGVKVFGMWASPMAIRVEWALRLKGVDYEYVDEDLANKSEALLRHNPVTKKVPVLVHDGKPLAESTVIVEYIDEAWKHGYPIMPSDPFDRAQARFWARFAEEKCNAALYPIFMTTGEEQRKLVHEAQQCLKTLETALEGKKFFGGDAFGYLDIVTGWAAYWLPVIEEACGVEVVTDEALPLMKAWFDRVLAVDAVKAVLPPRDKLVALNKARREQILSA |  | 3866 ± 871 | 0.869 | 1.57 | 407 |  |  |  | 
4 | OsGSTU17 (Oryza sativa Japonica Group; M17A) (protein, about 25 kDa subunit; dimeric enzyme; mutants L112A and W165A expressed at 20 °C) MAADKGVKVFGMWASPAAIRVEWALRLKGVDYEYVDEDLANKSEALLRHNPVTKKVPVLVHDGKPLAESTVIVEYIDEAWKHGYPIMPSDPFDRAQARFWARFAEEKCNAALYPIFMTTGEEQRKLVHEAQQCLKTLETALEGKKFFGGDAFGYLDIVTGWFAYWLPVIEEACGVEVVTDEALPLMKAWFDRVLAVDAVKAVLPPRDKLVALNKARREQILSA |  | 3661 ± 843 | 0.83 | 0.809 | 221 |  |  |  | 
5 | OsGSTU17 (Oryza sativa Japonica Group; N109A) (protein, about 25 kDa subunit; dimeric enzyme; mutants L112A and W165A expressed at 20 °C) MAADKGVKVFGMWASPMAIRVEWALRLKGVDYEYVDEDLANKSEALLRHNPVTKKVPVLVHDGKPLAESTVIVEYIDEAWKHGYPIMPSDPFDRAQARFWARFAEEKCAAALYPIFMTTGEEQRKLVHEAQQCLKTLETALEGKKFFGGDAFGYLDIVTGWFAYWLPVIEEACGVEVVTDEALPLMKAWFDRVLAVDAVKAVLPPRDKLVALNKARREQILSA |  |  |  |  |  | 781 ± 34 | 0.364 | 0.266 | 341
6 | OsGSTU17 (Oryza sativa Japonica Group; L112A) (protein, about 25 kDa subunit; dimeric enzyme; mutants L112A and W165A expressed at 20 °C) MAADKGVKVFGMWASPMAIRVEWALRLKGVDYEYVDEDLANKSEALLRHNPVTKKVPVLVHDGKPLAESTVIVEYIDEAWKHGYPIMPSDPFDRAQARFWARFAEEKCNAAAYPIFMTTGEEQRKLVHEAQQCLKTLETALEGKKFFGGDAFGYLDIVTGWFAYWLPVIEEACGVEVVTDEALPLMKAWFDRVLAVDAVKAVLPPRDKLVALNKARREQILSA |  | 1487 ± 79 | 0.896 | 1.75 | 1180 |  |  |  | 
